Ends that are not written are not given here. * marks the point of attachment. C16 diacid = O=C(O)CCCCCCCCCCCCCCC(=O)*

In this assay the target is T1, human GIP receptor (human, UniProt P48546 22-466).
T1 sequence (looked up): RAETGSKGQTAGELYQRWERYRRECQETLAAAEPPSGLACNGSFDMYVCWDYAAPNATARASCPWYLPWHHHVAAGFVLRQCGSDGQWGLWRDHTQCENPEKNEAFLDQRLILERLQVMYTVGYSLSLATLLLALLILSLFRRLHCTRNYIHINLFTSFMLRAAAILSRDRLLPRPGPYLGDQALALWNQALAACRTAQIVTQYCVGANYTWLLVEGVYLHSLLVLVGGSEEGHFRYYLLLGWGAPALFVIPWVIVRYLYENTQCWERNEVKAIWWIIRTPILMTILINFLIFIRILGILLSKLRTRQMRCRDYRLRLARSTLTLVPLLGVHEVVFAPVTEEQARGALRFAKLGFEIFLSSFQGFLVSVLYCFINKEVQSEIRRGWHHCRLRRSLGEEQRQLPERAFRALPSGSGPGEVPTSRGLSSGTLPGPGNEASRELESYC
Briefly: cell-based or functional assay.

B1: AT313 [hGIP(3-30)NH2[N24K]-C16diacid/24] (peptide)
peptide: EGTFISDYSIAMDKIHQQDFVK(C16 diacid)WLLAQK-NH2
modifications: N-terminus assumed
SMILES: CC[C@H](C)[C@H](NC(=O)[C@H](CO)NC(=O)[C@H](Cc1ccc(O)cc1)NC(=O)[C@H](CC(=O)O)NC(=O)[C@H](CO)NC(=O)[C@@H](NC(=O)[C@H](Cc1ccccc1)NC(=O)[C@@H](NC(=O)CNC(=O)[C@@H](N)CCC(=O)O)[C@@H](C)O)[C@@H](C)CC)C(=O)N[C@@H](C)C(=O)N[C@@H](CCSC)C(=O)N[C@@H](CC(=O)O)C(=O)N[C@@H](CCCCN)C(=O)N[C@H](C(=O)N[C@@H](Cc1c[nH]cn1)C(=O)N[C@@H](CCC(N)=O)C(=O)N[C@@H](CCC(N)=O)C(=O)N[C@@H](CC(=O)O)C(=O)N[C@@H](Cc1ccccc1)C(=O)N[C@H](C(=O)N[C@@H](CCCCNC(=O)CCCCCCCCCCCCCCC(=O)O)C(=O)N[C@@H](Cc1c[nH]c2ccccc12)C(=O)N[C@@H](CC(C)C)C(=O)N[C@@H](CC(C)C)C(=O)N[C@@H](C)C(=O)N[C@@H](CCC(N)=O)C(=O)N[C@@H](CCCCN)C(N)=O)C(C)C)[C@@H](C)CC
Take B1: the “cAMP agonism, EC50 (log)” value was -7 log M; the “cAMP agonism, Emax” value stood at 7.2%; the “cAMP agonism, nM (EC50)” value turned out to be 97 nM; the “cAMP antagonism, log (IC50)” value was -6.5 log M. Further, the “cAMP antagonism, nM (IC50)” value is 348 nM.

B2: AT314 [hGIP(3-30)NH2[W25K]-C16diacid/25] (peptide)
peptide: EGTFISDYSIAMDKIHQQDFVNK(C16 diacid)LLAQK-NH2
modifications: N-terminus assumed
SMILES: CC[C@H](C)[C@H](NC(=O)[C@H](CO)NC(=O)[C@H](Cc1ccc(O)cc1)NC(=O)[C@H](CC(=O)O)NC(=O)[C@H](CO)NC(=O)[C@@H](NC(=O)[C@H](Cc1ccccc1)NC(=O)[C@@H](NC(=O)CNC(=O)[C@@H](N)CCC(=O)O)[C@@H](C)O)[C@@H](C)CC)C(=O)N[C@@H](C)C(=O)N[C@@H](CCSC)C(=O)N[C@@H](CC(=O)O)C(=O)N[C@@H](CCCCN)C(=O)N[C@H](C(=O)N[C@@H](Cc1c[nH]cn1)C(=O)N[C@@H](CCC(N)=O)C(=O)N[C@@H](CCC(N)=O)C(=O)N[C@@H](CC(=O)O)C(=O)N[C@@H](Cc1ccccc1)C(=O)N[C@H](C(=O)N[C@@H](CC(N)=O)C(=O)N[C@@H](CCCCNC(=O)CCCCCCCCCCCCCCC(=O)O)C(=O)N[C@@H](CC(C)C)C(=O)N[C@@H](CC(C)C)C(=O)N[C@@H](C)C(=O)N[C@@H](CCC(N)=O)C(=O)N[C@@H](CCCCN)C(N)=O)C(C)C)[C@@H](C)CC
Take B2: the “cAMP agonism, EC50 (log)” value is -7.2 log M; the “cAMP agonism, Emax” value is 28.4%; the “cAMP agonism, nM (EC50)” value was 62 nM; the “cAMP antagonism, log (IC50)” value is -7 log M. Also, the “cAMP antagonism, nM (IC50)” value worked out at 101 nM.

B3: AT310 [hGIP(3-30)NH2[D21K]-C16diacid/21] (peptide)
peptide: EGTFISDYSIAMDKIHQQK(C16 diacid)FVNWLLAQK-NH2
modifications: N-terminus assumed
SMILES: CC[C@H](C)[C@H](NC(=O)[C@H](CO)NC(=O)[C@H](Cc1ccc(O)cc1)NC(=O)[C@H](CC(=O)O)NC(=O)[C@H](CO)NC(=O)[C@@H](NC(=O)[C@H](Cc1ccccc1)NC(=O)[C@@H](NC(=O)CNC(=O)[C@@H](N)CCC(=O)O)[C@@H](C)O)[C@@H](C)CC)C(=O)N[C@@H](C)C(=O)N[C@@H](CCSC)C(=O)N[C@@H](CC(=O)O)C(=O)N[C@@H](CCCCN)C(=O)N[C@H](C(=O)N[C@@H](Cc1c[nH]cn1)C(=O)N[C@@H](CCC(N)=O)C(=O)N[C@@H](CCC(N)=O)C(=O)N[C@@H](CCCCNC(=O)CCCCCCCCCCCCCCC(=O)O)C(=O)N[C@@H](Cc1ccccc1)C(=O)N[C@H](C(=O)N[C@@H](CC(N)=O)C(=O)N[C@@H](Cc1c[nH]c2ccccc12)C(=O)N[C@@H](CC(C)C)C(=O)N[C@@H](CC(C)C)C(=O)N[C@@H](C)C(=O)N[C@@H](CCC(N)=O)C(=O)N[C@@H](CCCCN)C(N)=O)C(C)C)[C@@H](C)CC
B3: the “cAMP agonism, EC50 (log)” value was -7.4 log M; the “cAMP agonism, Emax” value is 6.2%; the “cAMP agonism, nM (EC50)” value came out at 39 nM; the “cAMP antagonism, log (IC50)” value is -7.3 log M. The “cAMP antagonism, nM (IC50)” value amounted to 49 nM.

B4: AT316 [hGIP(3-30)NH2[L27K]-C16diacid/27] (peptide)
peptide: EGTFISDYSIAMDKIHQQDFVNWLK(C16 diacid)AQK-NH2
modifications: N-terminus assumed
SMILES: CC[C@H](C)[C@H](NC(=O)[C@H](CO)NC(=O)[C@H](Cc1ccc(O)cc1)NC(=O)[C@H](CC(=O)O)NC(=O)[C@H](CO)NC(=O)[C@@H](NC(=O)[C@H](Cc1ccccc1)NC(=O)[C@@H](NC(=O)CNC(=O)[C@@H](N)CCC(=O)O)[C@@H](C)O)[C@@H](C)CC)C(=O)N[C@@H](C)C(=O)N[C@@H](CCSC)C(=O)N[C@@H](CC(=O)O)C(=O)N[C@@H](CCCCN)C(=O)N[C@H](C(=O)N[C@@H](Cc1c[nH]cn1)C(=O)N[C@@H](CCC(N)=O)C(=O)N[C@@H](CCC(N)=O)C(=O)N[C@@H](CC(=O)O)C(=O)N[C@@H](Cc1ccccc1)C(=O)N[C@H](C(=O)N[C@@H](CC(N)=O)C(=O)N[C@@H](Cc1c[nH]c2ccccc12)C(=O)N[C@@H](CC(C)C)C(=O)N[C@@H](CCCCNC(=O)CCCCCCCCCCCCCCC(=O)O)C(=O)N[C@@H](C)C(=O)N[C@@H](CCC(N)=O)C(=O)N[C@@H](CCCCN)C(N)=O)C(C)C)[C@@H](C)CC
Turning to B4, the “cAMP agonism, EC50 (log)” value is -6.5 log M; the “cAMP agonism, Emax” value amounted to 6.2%; the “cAMP agonism, nM (EC50)” value was found to be 294 nM; the “cAMP antagonism, log (IC50)” value is -6.2 log M. Moreover, the “cAMP antagonism, nM (IC50)” value amounted to 649 nM.

B5: AT312 [hGIP(3-30)NH2[V23K]-C16diacid/23] (peptide)
peptide: EGTFISDYSIAMDKIHQQDFK(C16 diacid)NWLLAQK-NH2
modifications: N-terminus assumed
SMILES: CC[C@H](C)[C@H](NC(=O)[C@H](CO)NC(=O)[C@H](Cc1ccc(O)cc1)NC(=O)[C@H](CC(=O)O)NC(=O)[C@H](CO)NC(=O)[C@@H](NC(=O)[C@H](Cc1ccccc1)NC(=O)[C@@H](NC(=O)CNC(=O)[C@@H](N)CCC(=O)O)[C@@H](C)O)[C@@H](C)CC)C(=O)N[C@@H](C)C(=O)N[C@@H](CCSC)C(=O)N[C@@H](CC(=O)O)C(=O)N[C@@H](CCCCN)C(=O)N[C@H](C(=O)N[C@@H](Cc1c[nH]cn1)C(=O)N[C@@H](CCC(N)=O)C(=O)N[C@@H](CCC(N)=O)C(=O)N[C@@H](CC(=O)O)C(=O)N[C@@H](Cc1ccccc1)C(=O)N[C@@H](CCCCNC(=O)CCCCCCCCCCCCCCC(=O)O)C(=O)N[C@@H](CC(N)=O)C(=O)N[C@@H](Cc1c[nH]c2ccccc12)C(=O)N[C@@H](CC(C)C)C(=O)N[C@@H](CC(C)C)C(=O)N[C@@H](C)C(=O)N[C@@H](CCC(N)=O)C(=O)N[C@@H](CCCCN)C(N)=O)[C@@H](C)CC
Take B5: the “cAMP agonism, EC50 (log)” value is -5.4 log M; the “cAMP agonism, Emax” value was 54%; the “cAMP agonism, nM (EC50)” value was 4080 nM.

B6: AT311 [hGIP(3-30)NH2[F22K]-C16diacid/22] (peptide)
peptide: EGTFISDYSIAMDKIHQQDK(C16 diacid)VNWLLAQK-NH2
modifications: N-terminus assumed
SMILES: CC[C@H](C)[C@H](NC(=O)[C@H](CO)NC(=O)[C@H](Cc1ccc(O)cc1)NC(=O)[C@H](CC(=O)O)NC(=O)[C@H](CO)NC(=O)[C@@H](NC(=O)[C@H](Cc1ccccc1)NC(=O)[C@@H](NC(=O)CNC(=O)[C@@H](N)CCC(=O)O)[C@@H](C)O)[C@@H](C)CC)C(=O)N[C@@H](C)C(=O)N[C@@H](CCSC)C(=O)N[C@@H](CC(=O)O)C(=O)N[C@@H](CCCCN)C(=O)N[C@H](C(=O)N[C@@H](Cc1c[nH]cn1)C(=O)N[C@@H](CCC(N)=O)C(=O)N[C@@H](CCC(N)=O)C(=O)N[C@@H](CC(=O)O)C(=O)N[C@@H](CCCCNC(=O)CCCCCCCCCCCCCCC(=O)O)C(=O)N[C@H](C(=O)N[C@@H](CC(N)=O)C(=O)N[C@@H](Cc1c[nH]c2ccccc12)C(=O)N[C@@H](CC(C)C)C(=O)N[C@@H](CC(C)C)C(=O)N[C@@H](C)C(=O)N[C@@H](CCC(N)=O)C(=O)N[C@@H](CCCCN)C(N)=O)C(C)C)[C@@H](C)CC
As to B6, the “cAMP agonism, EC50 (log)” value is -6.1 log M; the “cAMP agonism, Emax” value was found to be 17.5%; the “cAMP agonism, nM (EC50)” value stood at 784 nM; the “cAMP antagonism, log (IC50)” value was -6 log M. Also, the “cAMP antagonism, nM (IC50)” value was determined as 923 nM.

B7: AT315 [hGIP(3-30)NH2[L26K]-C16diacid/26] (peptide)
peptide: EGTFISDYSIAMDKIHQQDFVNWK(C16 diacid)LAQK-NH2
modifications: N-terminus assumed
SMILES: CC[C@H](C)[C@H](NC(=O)[C@H](CO)NC(=O)[C@H](Cc1ccc(O)cc1)NC(=O)[C@H](CC(=O)O)NC(=O)[C@H](CO)NC(=O)[C@@H](NC(=O)[C@H](Cc1ccccc1)NC(=O)[C@@H](NC(=O)CNC(=O)[C@@H](N)CCC(=O)O)[C@@H](C)O)[C@@H](C)CC)C(=O)N[C@@H](C)C(=O)N[C@@H](CCSC)C(=O)N[C@@H](CC(=O)O)C(=O)N[C@@H](CCCCN)C(=O)N[C@H](C(=O)N[C@@H](Cc1c[nH]cn1)C(=O)N[C@@H](CCC(N)=O)C(=O)N[C@@H](CCC(N)=O)C(=O)N[C@@H](CC(=O)O)C(=O)N[C@@H](Cc1ccccc1)C(=O)N[C@H](C(=O)N[C@@H](CC(N)=O)C(=O)N[C@@H](Cc1c[nH]c2ccccc12)C(=O)N[C@@H](CCCCNC(=O)CCCCCCCCCCCCCCC(=O)O)C(=O)N[C@@H](CC(C)C)C(=O)N[C@@H](C)C(=O)N[C@@H](CCC(N)=O)C(=O)N[C@@H](CCCCN)C(N)=O)C(C)C)[C@@H](C)CC
On to B7, for which the “cAMP agonism, EC50 (log)” value was -6.7 log M; the “cAMP agonism, Emax” value was found to be 5.9%; the “cAMP agonism, nM (EC50)” value came to 183 nM; the “cAMP antagonism, log (IC50)” value is -6.3 log M. Also, the “cAMP antagonism, nM (IC50)” value came to 556 nM.

The values are drawn from patent US20200087373A1 (UNIVERSITY OF COPENHAGEN, published 2020).
